{"source": "paper PMC6863848", "about": "“Selection of an optimal macrocyclic chelator improves the imaging of prostate cancer using cobalt-labeled GRPR antagonist RM26” (Scientific Reports, 2019)", "key": {"[1]": {"experiment": "Ex vivo biodistribution and tumor targeting", "conditions": "female, BALB/c nu/nu, mouse, iv, 45 pmol per mouse, total radioactivity; for tissue uptake at 3 h / tissue uptake at 24 h: PC-3-xenografted BALB/c nu/nu mice, iv 25 kBq/45 pmol, 4 mice per data point; for tissue uptake at 3 h: 3 h pi; for tissue uptake at 24 h: 24 h pi", "method": "(§1) Euthanasia was performed by intraperitoneal injection of Ketalar-Rompun solution (10 mg/mL Ketalar and 1 mg/mL Rompun; 20 µL/g body weight) and all efforts were made to minimize suffering. Groups of 4 mice per data point were used.\n(§2) Blood samples were collected by heart puncture. Lung, liver, spleen, pancreas, stomach, small intestines, kidneys, muscle, bone, and the rest of gastrointestinal tract with its content were collected, weighed and measured in a gamma-counter. The organ uptake values were expressed as a percentage of injected dose per gram of tissue weight (%ID/g) with the exception of gastrointestinal tract and the remaining carcass, which were calculated as %ID per whole sample.\n(§3) The biodistribution and targeting properties of ^57Co-X-PEG2-RM26 were evaluated in female BALB/c nu/nu mice (weight: 18 ± 2 g). GRPR-expressing xenografts were established by subcutaneous injection of 8 × 10^6 PC-3 cells/mouse, 2 weeks prior to the experiment. At the time of experiment, the mice were intravenously injected with ^57Co-X-PEG2-RM26 (25 kBq, 45 pmol in 100 µL PBS per mouse) and were euthanized 3 and 24 h pi."}, "[2]": {"test_system": "PC-3 xenografted BALB/c nu/nu mice", "experiment": "Ex vivo biodistribution and tumor targeting", "conditions": "24 h pi", "method": "as §1, §2, §3"}, "in vivo": {"experiment": "in vivo", "conditions": "female, BALB/c nu/nu, mouse, iv, 45 pmol per mouse, total radioactivity", "method": "as §1, §2, §3"}, "[3]": {"conditions": "gastrointestinal tract with content (whole sample)"}, "[4]": {"conditions": "remaining carcass (whole sample)"}, "[5]": {"conditions": "small intestine, Sm. Int. uptake"}}}
{"smiles": "CC(C)C[C@H](NC(=O)C[C@H](O)[C@H](CC(C)C)NC(=O)[C@H](Cc1c[nH]cn1)NC(=O)CNC(=O)[C@@H](NC(=O)[C@H](C)NC(=O)[C@H](Cc1c[nH]c2ccccc12)NC(=O)[C@H](CCC(N)=O)NC(=O)[C@@H](Cc1ccccc1)NC(=O)COCCOCCNC(=O)CCC(C(=O)O)N1CCN(CC(=O)O)CCN(CC(=O)O)CCN(CC(=O)O)CC1)C(C)C)C(N)=O", "note": "(stereo partly shown) [DOTAGA]", "values": [{"measurement": "tissue uptake at 3 h", "setting": "[1]; blood, Blood uptake", "value": "0.02 ± 0.01", "unit": "%ID/g"}, {"measurement": "tissue uptake at 24 h", "setting": "[1]; blood, Blood uptake", "value": "0.005 ± 0.002", "unit": "%ID/g"}, {"measurement": "tissue uptake at 3 h", "setting": "[1]; bone, Bone uptake", "value": "0.02 ± 0.005", "unit": "%ID/g"}, {"measurement": "tissue uptake at 24 h", "setting": "[1]; bone, Bone uptake", "value": "0.02 ± 0.03", "unit": "%ID/g"}, {"measurement": "tissue uptake dose at 3 h", "setting": "[1]; [3]", "value": "1 ± 0.5", "unit": "%ID"}, {"measurement": "tissue uptake dose at 24 h", "setting": "[1]; [3]", "value": "0.1 ± 0.1", "unit": "%ID"}, {"measurement": "tissue uptake at 3 h", "setting": "[1]; kidneys, Kidneys uptake", "value": "3.5 ± 0.4", "unit": "%ID/g"}, {"measurement": "tissue uptake at 24 h", "setting": "[1]; kidneys, Kidneys uptake", "value": "1.8 ± 0.5", "unit": "%ID/g"}, {"measurement": "tissue uptake at 3 h", "setting": "[1]; liver, Liver uptake", "value": "0.08 ± 0.02", "unit": "%ID/g"}, {"measurement": "tissue uptake at 24 h", "setting": "[1]; liver, Liver uptake", "value": "0.04 ± 0.01", "unit": "%ID/g"}, {"measurement": "tissue uptake at 3 h", "setting": "[1]; lung, Lung uptake", "value": "0.07 ± 0.03", "unit": "%ID/g"}, {"measurement": "tissue uptake at 24 h", "setting": "[1]; lung, Lung uptake", "value": "0.02 ± 0.02", "unit": "%ID/g"}, {"measurement": "tissue uptake at 3 h", "setting": "[1]; muscle, Muscle uptake", "value": "0.04 ± 0.01", "unit": "%ID/g"}, {"measurement": "tissue uptake at 24 h", "setting": "[1]; muscle, Muscle uptake", "value": "0.007 ± 0.007", "unit": "%ID/g"}, {"measurement": "tissue uptake at 3 h", "setting": "[1]; pancreas, Pancreas uptake", "value": "0.4 ± 0.1", "unit": "%ID/g"}, {"measurement": "tissue uptake at 24 h", "setting": "[1]; pancreas, Pancreas uptake", "value": "0.028 ± 0.009", "unit": "%ID/g"}, {"measurement": "tissue uptake dose at 3 h", "setting": "[1]; [4]", "value": "1.9 ± 0.9", "unit": "%ID"}, {"measurement": "tissue uptake dose at 24 h", "setting": "[1]; [4]", "value": "0.3 ± 0.3", "unit": "%ID"}, {"measurement": "tissue uptake at 3 h", "setting": "[1]; [5]", "value": "0.13 ± 0.05", "unit": "%ID/g"}, {"measurement": "tissue uptake at 24 h", "setting": "[1]; [5]", "value": "0.02 ± 0.01", "unit": "%ID/g"}, {"measurement": "tissue uptake at 3 h", "setting": "[1]; spleen, Spleen uptake", "value": "0.08 ± 0.05", "unit": "%ID/g"}, {"measurement": "tissue uptake at 24 h", "setting": "[1]; spleen, Spleen uptake", "value": "0.016 ± 0.009", "unit": "%ID/g"}, {"measurement": "tissue uptake at 3 h", "setting": "[1]; stomach, Stomach uptake", "value": "0.4 ± 0.3", "unit": "%ID/g"}, {"measurement": "tissue uptake at 24 h", "setting": "[1]; stomach, Stomach uptake", "value": "0.018 ± 0.004", "unit": "%ID/g"}, {"measurement": "tissue uptake at 3 h", "setting": "[1]; tumor, Tumor uptake", "value": "6.9 ± 2.7", "unit": "%ID/g"}, {"measurement": "tissue uptake at 24 h", "setting": "[1]; tumor, Tumor uptake", "value": "2.3 ± 0.7", "unit": "%ID/g"}, {"measurement": "Kidney uptake, higher compared to NODAGA- and DOTA-containing analogues", "setting": "[2]", "value": "twofold higher"}]}
{"smiles": "CC(C)C[C@H](NC(=O)C[C@H](O)[C@H](CC(C)C)NC(=O)[C@H](Cc1c[nH]cn1)NC(=O)CNC(=O)[C@@H](NC(=O)[C@H](C)NC(=O)[C@H](Cc1c[nH]c2ccccc12)NC(=O)[C@H](CCC(N)=O)NC(=O)[C@@H](Cc1ccccc1)NC(=O)COCCOCCNC(=O)CCC(C(=O)O)N1CCN(CC(=O)O)CCN(CC(=O)O)CC1)C(C)C)C(N)=O", "note": "(stereo partly shown) [NODAGA]", "values": [{"measurement": "tissue uptake at 3 h", "setting": "[1]; blood, Blood uptake", "value": "0.032 ± 0.009", "unit": "%ID/g"}, {"measurement": "tissue uptake at 24 h", "setting": "[1]; blood, Blood uptake", "value": "0.006 ± 0.003", "unit": "%ID/g"}, {"measurement": "tissue uptake at 3 h", "setting": "[1]; bone, Bone uptake", "value": "0.1 ± 0.2", "unit": "%ID/g"}, {"measurement": "tissue uptake at 24 h", "setting": "[1]; bone, Bone uptake", "value": "0.007 ± 0.002", "unit": "%ID/g"}, {"measurement": "tissue uptake dose at 3 h", "setting": "[1]; [3]", "value": "5 ± 1", "unit": "%ID"}, {"measurement": "tissue uptake dose at 24 h", "setting": "[1]; [3]", "value": "0.3 ± 0.2", "unit": "%ID"}, {"measurement": "tissue uptake at 3 h", "setting": "[1]; kidneys, Kidneys uptake", "value": "2.5 ± 0.8", "unit": "%ID/g"}, {"measurement": "tissue uptake at 24 h", "setting": "[1]; kidneys, Kidneys uptake", "value": "0.7 ± 0.4", "unit": "%ID/g"}, {"measurement": "tissue uptake at 3 h", "setting": "[1]; liver, Liver uptake", "value": "0.08 ± 0.02", "unit": "%ID/g"}, {"measurement": "tissue uptake at 24 h", "setting": "[1]; liver, Liver uptake", "value": "0.02 ± 0.01", "unit": "%ID/g"}, {"measurement": "tissue uptake at 3 h", "setting": "[1]; lung, Lung uptake", "value": "0.05 ± 0.01", "unit": "%ID/g"}, {"measurement": "tissue uptake at 24 h", "setting": "[1]; lung, Lung uptake", "value": "0.02 ± 0.01", "unit": "%ID/g"}, {"measurement": "tissue uptake at 3 h", "setting": "[1]; muscle, Muscle uptake", "value": "0.02 ± 0.01", "unit": "%ID/g"}, {"measurement": "tissue uptake at 24 h", "setting": "[1]; muscle, Muscle uptake", "value": "0.006 ± 0.005", "unit": "%ID/g"}, {"measurement": "tissue uptake at 3 h", "setting": "[1]; pancreas, Pancreas uptake", "value": "0.3 ± 0.2", "unit": "%ID/g"}, {"measurement": "tissue uptake at 24 h", "setting": "[1]; pancreas, Pancreas uptake", "value": "0.02 ± 0.03", "unit": "%ID/g"}, {"measurement": "tissue uptake dose at 3 h", "setting": "[1]; [4]", "value": "1.3 ± 0.3", "unit": "%ID"}, {"measurement": "tissue uptake dose at 24 h", "setting": "[1]; [4]", "value": "0.1 ± 0.1", "unit": "%ID"}, {"measurement": "tissue uptake at 3 h", "setting": "[1]; [5]", "value": "0.3 ± 0.3", "unit": "%ID/g"}, {"measurement": "tissue uptake at 24 h", "setting": "[1]; [5]", "value": "0.015 ± 0.007", "unit": "%ID/g"}, {"measurement": "tissue uptake at 3 h", "setting": "[1]; spleen, Spleen uptake", "value": "0.05 ± 0.02", "unit": "%ID/g"}, {"measurement": "tissue uptake at 24 h", "setting": "[1]; spleen, Spleen uptake", "value": "0.009 ± 0.002", "unit": "%ID/g"}, {"measurement": "tissue uptake at 3 h", "setting": "[1]; stomach, Stomach uptake", "value": "0.39 ± 0.09", "unit": "%ID/g"}, {"measurement": "tissue uptake at 24 h", "setting": "[1]; stomach, Stomach uptake", "value": "0.04 ± 0.01", "unit": "%ID/g"}, {"measurement": "tissue uptake at 3 h", "setting": "[1]; tumor, Tumor uptake", "value": "6.3 ± 1.2", "unit": "%ID/g"}, {"measurement": "tissue uptake at 24 h", "setting": "[1]; tumor, Tumor uptake", "value": "2.3 ± 0.9", "unit": "%ID/g"}]}
{"smiles": "CC(C)C[C@H](NC(=O)C[C@H](O)[C@H](CC(C)C)NC(=O)[C@H](Cc1c[nH]cn1)NC(=O)CNC(=O)[C@@H](NC(=O)[C@H](C)NC(=O)[C@H](Cc1c[nH]c2ccccc12)NC(=O)[C@H](CCC(N)=O)NC(=O)[C@@H](Cc1ccccc1)NC(=O)COCCOCCNC(=O)CN1CCN(CC(=O)O)CCN(CC(=O)O)CC1)C(C)C)C(N)=O", "note": "[NOTA]", "values": [{"measurement": "tissue uptake at 24 h", "setting": "in vivo; Bone uptake", "value": "0.08 ± 0.05", "unit": "%ID/g"}, {"measurement": "tissue uptake at 24 h", "setting": "in vivo; Kidneys uptake", "value": "0.09 ± 0.03", "unit": "%ID/g"}, {"measurement": "tissue uptake at 3 h", "setting": "in vivo; Liver uptake", "value": "0.07 ± 0.004", "unit": "%ID/g"}, {"measurement": "tissue uptake at 3 h", "setting": "in vivo; Pancreas uptake", "value": "0.21 ± 0.052", "unit": "%ID/g"}, {"measurement": "tissue uptake at 24 h", "setting": "in vivo; Sm. Int. uptake", "value": "0.06 ± 0.03", "unit": "%ID/g"}, {"measurement": "tissue uptake at 3 h", "setting": "in vivo; Spleen uptake", "value": "0.05 ± 0.008", "unit": "%ID/g"}, {"measurement": "tissue uptake at 24 h", "setting": "in vivo; Stomach uptake", "value": "0.05 ± 0.03", "unit": "%ID/g"}, {"measurement": "tissue uptake at 3 h", "setting": "[1]; blood, Blood uptake", "value": "0.019 ± 0.004", "unit": "%ID/g"}, {"measurement": "tissue uptake at 24 h", "setting": "[1]; blood, Blood uptake", "value": "0.006 ± 0.001", "unit": "%ID/g"}, {"measurement": "tissue uptake at 3 h", "setting": "[1]; bone, Bone uptake", "value": "0.04 ± 0.04", "unit": "%ID/g"}, {"measurement": "tissue uptake dose at 3 h", "setting": "[1]; [3]", "value": "0.6 ± 0.1", "unit": "%ID"}, {"measurement": "tissue uptake dose at 24 h", "setting": "[1]; [3]", "value": "0.09 ± 0.03", "unit": "%ID"}, {"measurement": "tissue uptake at 3 h", "setting": "[1]; kidneys, Kidneys uptake", "value": "0.93 ± 0.05", "unit": "%ID/g"}, {"measurement": "tissue uptake at 24 h", "setting": "[1]; liver, Liver uptake", "value": "0.025 ± 0.005", "unit": "%ID/g"}, {"measurement": "tissue uptake at 3 h", "setting": "[1]; lung, Lung uptake", "value": "0.065 ± 0.005", "unit": "%ID/g"}, {"measurement": "tissue uptake at 24 h", "setting": "[1]; lung, Lung uptake", "value": "0.09 ± 0.15", "unit": "%ID/g"}, {"measurement": "tissue uptake at 3 h", "setting": "[1]; muscle, Muscle uptake", "value": "0.08 ± 0.1", "unit": "%ID/g"}, {"measurement": "tissue uptake at 24 h", "setting": "[1]; muscle, Muscle uptake", "value": "0.011 ± 0.005", "unit": "%ID/g"}, {"measurement": "tissue uptake at 24 h", "setting": "[1]; pancreas, Pancreas uptake", "value": "0.023 ± 0.002", "unit": "%ID/g"}, {"measurement": "tissue uptake dose at 3 h", "setting": "[1]; [4]", "value": "0.6 ± 0.4", "unit": "%ID"}, {"measurement": "tissue uptake dose at 24 h", "setting": "[1]; [4]", "value": "0.18 ± 0.06", "unit": "%ID"}, {"measurement": "tissue uptake at 3 h", "setting": "[1]; [5]", "value": "0.098 ± 0.028", "unit": "%ID/g"}, {"measurement": "tissue uptake at 24 h", "setting": "[1]; spleen, Spleen uptake", "value": "0.029 ± 0.004", "unit": "%ID/g"}, {"measurement": "tissue uptake at 3 h", "setting": "[1]; stomach, Stomach uptake", "value": "0.3 ± 0.1", "unit": "%ID/g"}, {"measurement": "tissue uptake at 3 h", "setting": "[1]; tumor, Tumor uptake", "value": "7.3 ± 1.3", "unit": "%ID/g"}, {"measurement": "tissue uptake at 24 h", "setting": "[1]; tumor, Tumor uptake", "value": "2.1 ± 0.2", "unit": "%ID/g"}]}
